Results reported in US20220177587A1, “METHODS AND USES OF VARIANT CD80 FUSION PROTEINS AND RELATED CONSTRUCTS” (Alpine Immune Sciences, Inc., priority 2018, published 2022).

Experiments:
[1] = molecular target: human PD-L1 (human) (UniProt Q9NZQ7); assay: flow cytometry; PD-L1 MFI over CD28 MFI of the same protein
[2] = molecular target: CD28 (human) (UniProt P10747); assay: flow cytometry, Jurkat/IL2 reporter cells (CD28)
[3] = molecular target: CD28 (human) (UniProt P10747); assay: flow cytometry, Jurkat cells (CD28); vs WT CD80 ECD-Fc (Abcam)
[4] = molecular target: human CTLA-4 (human) (UniProt P16410); assay: flow cytometry, CHO cells expressing huCTLA-4
Sequence of human CTLA-4 (human) (P16410 36-223): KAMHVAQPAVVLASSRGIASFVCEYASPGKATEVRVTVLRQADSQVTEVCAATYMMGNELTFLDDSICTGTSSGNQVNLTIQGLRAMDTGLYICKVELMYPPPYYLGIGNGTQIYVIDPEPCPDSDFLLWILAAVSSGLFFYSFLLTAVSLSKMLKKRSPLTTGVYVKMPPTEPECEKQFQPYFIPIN

[5] = molecular target: human CTLA-4 (human) (UniProt P16410); assay: flow cytometry, CHO/huCTLA-4 cells; vs WT CD80 ECD-Fc (Abcam)
[6] = molecular target: human PD-L1 (human) (UniProt Q9NZQ7); assay: flow cytometry, CHO cells expressing huPD-L1
[7] = molecular target: human PD-L1 (human) (UniProt Q9NZQ7); assay: flow cytometry, CHO/huPD-L1 cells; vs WT CD80 ECD-Fc (Abcam)
[8] = molecular target: human CTLA-4 (human) (UniProt P16410); assay: flow cytometry, CHO cells stably expressing CTLA4
[9] = molecular target: human CTLA-4 (human) (UniProt P16410); assay: flow cytometry, CHO/CTLA4 cells; MFI over CD80 WT IgV-Fc
[10] = molecular target: human PD-L1 (human) (UniProt Q9NZQ7); assay: flow cytometry, CHO cells stably expressing PD-L1
[11] = molecular target: human PD-L1 (human) (UniProt Q9NZQ7); assay: flow cytometry, CHO/PD-L1 cells; MFI over CD80 WT IgV-Fc
[12] = molecular target: CD28 (human) (UniProt P10747); assay: flow cytometry, Jurkat cells (CD28)
[13] = molecular target: CD28 (human) (UniProt P10747); assay: flow cytometry, Jurkat cells (CD28); MFI over CD80 WT IgV-Fc

Sequence of human PD-L1 (human) (Q9NZQ7 19-290): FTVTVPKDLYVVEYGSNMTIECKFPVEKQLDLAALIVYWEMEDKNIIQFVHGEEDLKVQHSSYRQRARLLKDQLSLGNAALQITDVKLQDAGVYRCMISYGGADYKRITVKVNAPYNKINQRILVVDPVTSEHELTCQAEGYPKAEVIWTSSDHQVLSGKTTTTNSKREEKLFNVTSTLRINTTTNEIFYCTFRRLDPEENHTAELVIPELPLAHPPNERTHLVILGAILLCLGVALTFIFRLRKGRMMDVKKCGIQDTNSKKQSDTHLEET

Row | Binder | Ratio of PDL1:CD28 [1] | MFI at 33.3 nM [2] [MFI] | Fold change to WT CD80 [3] [fold] | MFI at 33.3 nM [4] [MFI] | Fold change to WT CD80 [5] [fold] | MFI at 33.3 nM [6] [MFI] | Fold change to WT CD80 [7] [fold] | MFI at 33.3 nM [8] [MFI] | Fold change to WT CD80 [9] [fold] | MFI at 33.3 nM [10] [MFI] | Fold change to WT CD80 [11] [fold] | MFI at 33.3 nM [12] [MFI] | Fold change to WT CD80 [13] [fold]
1 | variant CD80 IgV-Fc M47L (Fc fusion) VIHVTKEVKEVATLSCGHNVSVEELAQTRIYWQKEKKMVLTMMSGDLNIWPEYKNRTIFDITNNLSIVILALRPSDEGTYECVVLKYEKDAFKREHLAEVTLSVKAD | 6.1 | 309 | 0.4 | 30800 | 0.8 | 1900 | 14.8 | – | – | – | – | – | –
2 | variant CD80 IgV-Fc (inert) H18I/A26P/E35D/M47V/V68M/A71G (Fc fusion) VIHVTKEVKEVATLSCGINVSVEELPQTRIYWQKDKKMVLTMMSGDVNIWPEYKNRTIFDITNNLSIMILGLRPSDEGTYECVVLKYEKDAFKREHLAEVTLSVKAD | – | – | – | – | – | – | – | 21900 | 15.8 | 64900 | 393 | 2570 | 25.2
3 | variant CD80 IgV-Fc E35D/D46V/M47L/L85Q (Fc fusion) VIHVTKEVKEVATLSCGHNVSVEELAQTRIYWQKDKKMVLTMMSGVLNIWPEYKNRTIFDITNNLSIVILALRPSDEGTYECVVQKYEKDAFKREHLAEVTLSVKAD | 28.1 | 268 | 0.4 | 38200 | 0.9 | 7520 | 58.8 | – | – | – | – | – | –
4 | variant CD80 IgV-Fc (inert) H18Y/E35D/M47V/V68M/A71G (Fc fusion) VIHVTKEVKEVATLSCGYNVSVEELAQTRIYWQKDKKMVLTMMSGDVNIWPEYKNRTIFDITNNLSIMILGLRPSDEGTYECVVLKYEKDAFKREHLAEVTLSVKAD | – | – | – | – | – | – | – | 23600 | 17.1 | 64900 | 393 | 3230 | 31.6
5 | variant CD80 IgV-Fc D46V/M47L/V68M (Fc fusion) VIHVTKEVKEVATLSCGHNVSVEELAQTRIYWQKEKKMVLTMMSGVLNIWPEYKNRTIFDITNNLSIMILALRPSDEGTYECVVLKYEKDAFKREHLAEVTLSVKAD | 12.8 | 2180 | 3.1 | 34700 | 0.9 | 28000 | 219 | – | – | – | – | – | –
6 | variant CD80 IgV-Fc (inert) H18V/E35D/M47V/V68M/A71G/D90G (Fc fusion) VIHVTKEVKEVATLSCGVNVSVEELAQTRIYWQKDKKMVLTMMSGDVNIWPEYKNRTIFDITNNLSIMILGLRPSDEGTYECVVLKYEKGAFKREHLAEVTLSVKAD | – | – | – | – | – | – | – | 16800 | 12.1 | 43600 | 264 | 2120 | 20.7
7 | variant CD80 IgV-Fc (inert) H18F/A26P/E35D/M47I/V68M/A71G/D90G (Fc fusion) VIHVTKEVKEVATLSCGFNVSVEELPQTRIYWQKDKKMVLTMMSGDINIWPEYKNRTIFDITNNLSIMILGLRPSDEGTYECVVLKYEKGAFKREHLAEVTLSVKAD | – | – | – | – | – | – | – | 23900 | 17.3 | 32300 | 196 | 4800 | 47.1
8 | variant CD80 IgV-Fc (inert) H18V/A26Q/E35D/M47V/V68L/A71G/D90G (Fc fusion) VIHVTKEVKEVATLSCGVNVSVEELQQTRIYWQKDKKMVLTMMSGDVNIWPEYKNRTIFDITNNLSILILGLRPSDEGTYECVVLKYEKGAFKREHLAEVTLSVKAD | – | – | – | – | – | – | – | 17700 | 12.8 | 33600 | 204 | 3130 | 30.6
9 | variant CD80 IgV-Fc E35D/M47L/V68M (Fc fusion) VIHVTKEVKEVATLSCGHNVSVEELAQTRIYWQKDKKMVLTMMSGDLNIWPEYKNRTIFDITNNLSIMILALRPSDEGTYECVVLKYEKDAFKREHLAEVTLSVKAD | 22.4 | 1240 | 1.8 | 28600 | 0.7 | 27900 | 218 | – | – | – | – | – | –
10 | variant CD80 IgV-Fc (inert) H18F/A26D/E35D/D46E/M47T/V68M/A71G/D90G (Fc fusion) VIHVTKEVKEVATLSCGFNVSVEELDQTRIYWQKDKKMVLTMMSGETNIWPEYKNRTIFDITNNLSIMILGLRPSDEGTYECVVLKYEKGAFKREHLAEVTLSVKAD | – | – | – | – | – | – | – | 17200 | 12.4 | 27500 | 167 | 6030 | 59.1
